± gives the uncertainty stated by the source.
Test: protein stability index of a GFP-peptide fusion (yeast GPS) (PSI 1-4); higher = more stable; sorted into four equal gates, so the index is relative within each strain
Outline: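 Tiled 17-residue peptides from yeast proteins were fused downstream of GFP on a plasmid that also expresses Cherry, and the pooled library was carried in yeast. Mid-log cultures grown in leucine-free medium were sorted into four equal gates by GFP/Cherry fluorescence ratio. Plasmids from each gate were PCR-amplified and Illumina-sequenced, and reads were assigned to strains by barcodes. Each peptide's protein stability index is the sum, over gates, of the gate's read frequency multiplied by its gate number.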

Row | Sequence | protein stability index (doa10∆) | protein stability index (pdr5∆) | protein stability index (san1∆) | protein stability index (ubr1∆)
1 | DLIRSESMLHLSIWIKN [IRR1] | 1.62 ± 0.057 | 2.01 ± 0.05 | 1.51 ± 0.098 | 1.8 ± 0.04
2 | TFTIQLLKLTKVFIRES [YML103C/NUP188] | 2.17 ± 0.063 | 3.12 ± 0.08 | 2.46 ± 0.086 | 2.69 ± 0.12
3 | AHLAEIQLNGGSISEKV [RPL3] |  |  |  | 2.86 ± 0.12
4 | EIYRISFQLSKIRRAAR [RPS9A] | 1.95 ± 0.043 | 2.15 ± 0.062 | 2.3 ± 0.048 | 2.29 ± 0.046
5 | MEGDDLFDEFGNLIGVD [SNU114] | 3.37 ± 0.2 |  |  | 
6 | HYLFNTFTFTAHMGVLL [SWP82] | 1.69 ± 0.039 | 1.68 ± 0.036 | 1.39 ± 0.072 | 1.51 ± 0.024
7 | IHGQDFQFFPKELDALQ [ISW2] | 2.62 ± 0.048 | 2.75 ± 0.053 | 3.11 ± 0.037 | 2.78 ± 0.041
8 | GNNTELTKTTVNISAVD [YCG1] | 2.98 ± 0.07 | 3.24 ± 0.071 | 3.02 ± 0.054 | 3.12 ± 0.054
9 | NVRDDMKPSDNISTNTN [SSN2] | 3.1 ± 0.045 | 2.94 ± 0.049 | 2.88 ± 0.051 | 3.04 ± 0.053
10 | KTCAEVIGGNSLFHIVV [SMC3] | 3.05 ± 0.11 | 3.1 ± 0.1 | 2.96 ± 0.071 | 3.01 ± 0.089
11 | VDINRLKKGEVSLGTSI [PRE3] | 2.21 ± 0.098 | 1.55 ± 0.063 | 2.11 ± 0.081 | 1.33 ± 0.06
12 | QPIVTGTSVISMKYDNG [PRE4] | 2.1 ± 0.25 | 2.69 ± 0.23 | 1.93 ± 0.15 | 2 ± 0.2
13 | QFLEQGLSIHPTQITQY [SRP68] | 2.17 ± 0.058 | 2.22 ± 0.076 | 2.27 ± 0.062 | 2.17 ± 0.067
14 | DEAKEKQLVEKAELRLA [ECM29] |  | 3.26 ± 0.24 |  | 3.27 ± 0.16
15 | RDVSDDVFDTLATYCPR [GRR1] | 3.02 ± 0.084 | 3.04 ± 0.071 | 3.05 ± 0.056 | 3.22 ± 0.06
16 | VRTNTLTKAAIVQIDAT [RPS8A] | 2.233 ± 0.022 | 2.54 ± 0.023 | 2.37 ± 0.026 | 2.297 ± 0.019
17 | KQERLKENEESLTPTQS [PRP28] | 3.13 ± 0.092 | 3.4 ± 0.07 | 3.22 ± 0.12 | 3.15 ± 0.074
18 | PAVKQWDLLPEPIRFLP [SWI1] | 2.28 ± 0.058 | 2.27 ± 0.069 | 2.33 ± 0.055 | 2.53 ± 0.072
19 | GTLDINPDDDYGFKQEI [FAS1] | 3.12 ± 0.26 | 3.21 ± 0.15 | 2.79 ± 0.099 | 3.04 ± 0.086
20 | KDILNLASEVGDPALVY [ECM29] | 2.87 ± 0.09 | 3.15 ± 0.12 | 3.39 ± 0.066 | 2.87 ± 0.076
21 | VTRIINSSEIQSAIRPA [RPL4A] | 2.32 ± 0.083 | 2.54 ± 0.12 | 2.37 ± 0.07 | 2.26 ± 0.096
22 | ILSSLYLLSIWVKKFKW [CYT1] | 2.22 ± 0.091 | 1.5 ± 0.069 | 1.77 ± 0.089 | 1.3 ± 0.055
23 | GNDNLIKAPTVAADGKL [YLR335W/NUP2] | 2.46 ± 0.097 | 2.93 ± 0.09 | 2.56 ± 0.077 | 2.95 ± 0.072
24 | INLAMNESSLALEFVSL [SRB4] | 1.44 ± 0.088 | 1.41 ± 0.074 | 1.81 ± 0.12 | 1.92 ± 0.064
25 | TNGNNAGGGSNKSSVRP [MED6] | 3.19 ± 0.14 | 3.47 ± 0.097 | 2.77 ± 0.1 | 3.11 ± 0.088
26 | ESSKLMTVTKVSLPEGS [BRR2] | 2.93 ± 0.22 | 2.33 ± 0.11 | 3.19 ± 0.1 | 2.63 ± 0.073
27 | EPAIEEENGDSIKEHST [MED1] | 3.32 ± 0.19 |  | 3.23 ± 0.14 | 3.56 ± 0.14

Row | Sequence | protein stability index (doa10∆) | protein stability index (pdr5∆) | protein stability index (san1∆) | protein stability index (ubr1∆)
28 | LKHVLQLIFRQQTGLVD [SNU114] | 1.23 ± 0.075 | 1.58 ± 0.076 | 1.68 ± 0.12 | 1.2 ± 0.049
29 | TSTDFPGFSKDAENEWN [RPC40] |  | 3.1 ± 0.22 |  | 
30 | SMTATADVLAMAKVEVN [RIP1] | 1.99 ± 0.12 | 2.4 ± 0.11 | 2.43 ± 0.15 | 2 ± 0.074
31 | ILGIAGEDFAVLAGDTR [PRE7] | 3.65 ± 0.22 | 3.2 ± 0.23 | 3.32 ± 0.23 | 3.64 ± 0.076
32 | TNAAFPFHDPEARLFNI [ECM29] | 3.04 ± 0.1 | 2.87 ± 0.12 | 2.42 ± 0.11 | 2.38 ± 0.072
33 | PIAQPATDVEARAVQDN [RPL13A] | 3.02 ± 0.15 | 3.17 ± 0.11 | 3.1 ± 0.14 | 1.69 ± 0.2
34 | AFSYPRMYEEASGKEVE [RPN2] | 2.66 ± 0.09 | 1.34 ± 0.082 | 1.28 ± 0.11 | 1.35 ± 0.059
35 | LRKIQALRDVKNNNNAN [GAL11] | 3.05 ± 0.077 | 2.87 ± 0.097 | 3.15 ± 0.1 | 3.11 ± 0.071
36 | LGQLYVTMGAKDKLREF [RPN6] | 3.33 ± 0.12 | 3.13 ± 0.11 | 3.08 ± 0.078 | 3.12 ± 0.069
37 | SLQNNLQNNINNSNNNN [SNF11] | 3.19 ± 0.078 | 3.27 ± 0.099 | 3.31 ± 0.066 | 3.29 ± 0.062
38 | PKELVPSHEKLKESYSQ [CDC53] | 3.13 ± 0.077 | 3.02 ± 0.067 | 2.51 ± 0.14 | 2.81 ± 0.073
39 | EIDPLTGMPISNDPDVN [BRN1] |  |  | 2.87 ± 0.13 | 3.03 ± 0.085
40 | NGVNVQIDQLNRLLPNL [GRR1] | 2.86 ± 0.044 | 3.07 ± 0.05 | 2.88 ± 0.039 | 2.91 ± 0.04
41 | PEKKEMIQEVIVEEDLE [FAS2] | 3.14 ± 0.077 | 3.31 ± 0.089 | 3.35 ± 0.045 | 3.36 ± 0.062
42 | KSPPQFFYNISSIHWNN [SIN4] | 2.15 ± 0.042 | 1.89 ± 0.039 | 2.17 ± 0.065 | 2.11 ± 0.042
43 | VNISAVDNTTEQSNSRK [YCG1] | 3.26 ± 0.23 | 2.35 ± 0.28 | 3.1 ± 0.25 | 
44 | HIILDTISECNLYDDVK [MED1] | 2.49 ± 0.073 | 3.18 ± 0.087 | 3.19 ± 0.067 | 3 ± 0.11
45 | KDLKDDSIYTKPVKVAL [YJL039C/NUP192] | 2.81 ± 0.049 | 2.98 ± 0.045 | 2.73 ± 0.053 | 3.02 ± 0.04
46 | KQINHQGEEEELIALNL [RPB4] | 3.34 ± 0.15 | 3.59 ± 0.13 | 3.2 ± 0.076 | 3.42 ± 0.11
47 | LKKGEQKTQELNAKYQS [ISW2] | 3.31 ± 0.063 | 3.22 ± 0.047 | 3.29 ± 0.039 | 3.29 ± 0.055
48 | KYNAFIASEVLIKQVPR [RPL1A] | 1.73 ± 0.085 | 1.57 ± 0.06 | 1.39 ± 0.15 | 1.66 ± 0.045
49 | KTPLLKQYLSASFSLKN [RPL6A] | 2.01 ± 0.051 | 1.98 ± 0.054 | 2.25 ± 0.059 | 2.27 ± 0.042
50 | LSYYVEETNVDIGVLEE [SMC4] |  | 3.38 ± 0.22 | 3.62 ± 0.072 | 3.5 ± 0.1
51 | LNKEKLGPLFKKIVDDT [IRR1] | 2.94 ± 0.099 | 3.12 ± 0.12 | 3.22 ± 0.23 | 2.94 ± 0.076
52 | LTCSLYELYINKLTILG [IRR1] | 1.36 ± 0.032 | 1.36 ± 0.04 | 1.34 ± 0.059 | 1.48 ± 0.045
53 | LSIDKVLKKPNRAMEYD [RET1] | 3.01 ± 0.18 | 2.56 ± 0.16 | 3.18 ± 0.2 | 1.98 ± 0.28
